Key:
Assay in all cases: cell-based or functional assay
[1] = molecular target: human FGFR1c/βKlotho receptor (human) (UniProt P11362)
[2] = molecular target: human FGFR3c/βKlotho receptor (human) (UniProt P22607)
[3] = molecular target: human FGFR2c/βKlotho receptor (human) (UniProt P21802)
[4] = molecular target: human FGFR4/βKlotho receptor (human) (UniProt P22455)
[5] = molecular target: cynomolgus monkey FGFR1c/βKlotho receptor (cynomolgus monkey)

Chain of human FGFR3c/βKlotho receptor (human) (P22607 23-806, chain 1 of 2): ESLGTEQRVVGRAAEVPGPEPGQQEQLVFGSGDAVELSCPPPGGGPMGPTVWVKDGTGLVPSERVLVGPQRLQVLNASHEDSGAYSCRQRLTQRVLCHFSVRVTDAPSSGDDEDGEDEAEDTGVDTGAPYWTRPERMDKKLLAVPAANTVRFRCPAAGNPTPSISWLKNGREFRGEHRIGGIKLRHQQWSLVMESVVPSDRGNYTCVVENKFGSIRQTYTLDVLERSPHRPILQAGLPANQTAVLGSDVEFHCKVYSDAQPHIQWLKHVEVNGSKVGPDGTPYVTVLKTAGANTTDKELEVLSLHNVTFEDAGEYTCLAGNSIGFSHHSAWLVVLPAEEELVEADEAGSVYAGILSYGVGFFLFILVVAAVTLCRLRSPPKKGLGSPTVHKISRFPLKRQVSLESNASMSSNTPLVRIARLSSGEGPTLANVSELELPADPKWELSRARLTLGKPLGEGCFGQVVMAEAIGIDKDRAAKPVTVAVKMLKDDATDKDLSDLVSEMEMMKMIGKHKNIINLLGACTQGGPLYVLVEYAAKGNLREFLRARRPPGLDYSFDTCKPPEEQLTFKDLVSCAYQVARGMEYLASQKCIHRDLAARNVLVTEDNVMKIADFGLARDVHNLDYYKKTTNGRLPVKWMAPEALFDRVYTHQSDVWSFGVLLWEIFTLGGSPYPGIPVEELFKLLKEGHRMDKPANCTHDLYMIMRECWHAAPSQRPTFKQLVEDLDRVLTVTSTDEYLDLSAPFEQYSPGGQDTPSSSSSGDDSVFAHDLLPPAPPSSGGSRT
Chain of human FGFR3c/βKlotho receptor (human) (chain, as listed by the source, chain 2 of 2): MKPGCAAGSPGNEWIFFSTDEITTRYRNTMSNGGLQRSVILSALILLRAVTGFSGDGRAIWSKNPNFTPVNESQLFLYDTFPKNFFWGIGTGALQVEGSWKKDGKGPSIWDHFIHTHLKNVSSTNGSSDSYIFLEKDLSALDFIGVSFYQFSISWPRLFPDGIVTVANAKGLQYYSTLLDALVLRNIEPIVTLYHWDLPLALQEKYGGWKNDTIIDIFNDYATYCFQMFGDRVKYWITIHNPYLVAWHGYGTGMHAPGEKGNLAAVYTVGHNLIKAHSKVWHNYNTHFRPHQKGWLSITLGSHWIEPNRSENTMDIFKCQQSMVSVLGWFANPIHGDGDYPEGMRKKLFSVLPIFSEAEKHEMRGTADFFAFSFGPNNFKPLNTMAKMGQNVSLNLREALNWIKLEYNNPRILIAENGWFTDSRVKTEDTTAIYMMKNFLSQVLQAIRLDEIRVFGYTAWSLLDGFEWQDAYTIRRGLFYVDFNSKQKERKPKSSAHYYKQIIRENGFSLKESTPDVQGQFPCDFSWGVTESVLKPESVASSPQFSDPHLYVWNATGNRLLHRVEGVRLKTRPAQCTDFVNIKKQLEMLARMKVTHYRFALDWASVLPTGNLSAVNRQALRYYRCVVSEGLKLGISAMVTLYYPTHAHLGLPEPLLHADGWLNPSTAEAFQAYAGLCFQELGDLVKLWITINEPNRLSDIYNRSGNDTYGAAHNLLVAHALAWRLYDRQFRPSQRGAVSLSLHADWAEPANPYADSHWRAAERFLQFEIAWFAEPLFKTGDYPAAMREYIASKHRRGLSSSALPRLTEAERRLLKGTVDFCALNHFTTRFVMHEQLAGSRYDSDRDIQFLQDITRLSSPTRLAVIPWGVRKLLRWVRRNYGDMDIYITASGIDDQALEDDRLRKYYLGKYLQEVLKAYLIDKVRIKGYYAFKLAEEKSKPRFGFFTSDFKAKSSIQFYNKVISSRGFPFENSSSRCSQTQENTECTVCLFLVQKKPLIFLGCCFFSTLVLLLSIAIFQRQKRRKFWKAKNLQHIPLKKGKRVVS
Chain of human FGFR1c/βKlotho receptor (human) (P11362 22-822, chain 1 of 2): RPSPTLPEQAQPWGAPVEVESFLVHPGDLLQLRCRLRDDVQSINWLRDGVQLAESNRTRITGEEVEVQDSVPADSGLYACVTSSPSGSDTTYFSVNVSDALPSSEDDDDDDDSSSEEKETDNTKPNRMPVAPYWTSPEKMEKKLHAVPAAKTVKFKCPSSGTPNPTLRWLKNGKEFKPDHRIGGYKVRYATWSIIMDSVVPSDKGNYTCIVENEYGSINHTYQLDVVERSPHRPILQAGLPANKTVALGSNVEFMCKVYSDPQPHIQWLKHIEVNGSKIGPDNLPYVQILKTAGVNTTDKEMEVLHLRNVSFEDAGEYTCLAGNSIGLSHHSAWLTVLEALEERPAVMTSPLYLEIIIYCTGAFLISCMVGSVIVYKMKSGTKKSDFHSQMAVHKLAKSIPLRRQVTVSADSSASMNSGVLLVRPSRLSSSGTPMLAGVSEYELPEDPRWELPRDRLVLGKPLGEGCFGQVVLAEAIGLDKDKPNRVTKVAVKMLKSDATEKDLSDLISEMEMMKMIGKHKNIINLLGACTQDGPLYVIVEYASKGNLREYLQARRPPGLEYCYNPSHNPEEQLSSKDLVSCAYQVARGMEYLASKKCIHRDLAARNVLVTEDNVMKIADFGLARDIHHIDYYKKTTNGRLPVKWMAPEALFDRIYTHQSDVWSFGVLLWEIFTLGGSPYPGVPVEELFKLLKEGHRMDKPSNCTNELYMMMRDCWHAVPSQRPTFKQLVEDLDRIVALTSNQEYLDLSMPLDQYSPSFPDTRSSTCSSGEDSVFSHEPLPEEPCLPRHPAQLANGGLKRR
Chain of human FGFR1c/βKlotho receptor (human) (chain, as listed by the source, chain 2 of 2): as the sequence (chain, as listed by the source, chain 2 of 2) above
Chain of human FGFR4/βKlotho receptor (human) (P22455 22-802, chain 1 of 2): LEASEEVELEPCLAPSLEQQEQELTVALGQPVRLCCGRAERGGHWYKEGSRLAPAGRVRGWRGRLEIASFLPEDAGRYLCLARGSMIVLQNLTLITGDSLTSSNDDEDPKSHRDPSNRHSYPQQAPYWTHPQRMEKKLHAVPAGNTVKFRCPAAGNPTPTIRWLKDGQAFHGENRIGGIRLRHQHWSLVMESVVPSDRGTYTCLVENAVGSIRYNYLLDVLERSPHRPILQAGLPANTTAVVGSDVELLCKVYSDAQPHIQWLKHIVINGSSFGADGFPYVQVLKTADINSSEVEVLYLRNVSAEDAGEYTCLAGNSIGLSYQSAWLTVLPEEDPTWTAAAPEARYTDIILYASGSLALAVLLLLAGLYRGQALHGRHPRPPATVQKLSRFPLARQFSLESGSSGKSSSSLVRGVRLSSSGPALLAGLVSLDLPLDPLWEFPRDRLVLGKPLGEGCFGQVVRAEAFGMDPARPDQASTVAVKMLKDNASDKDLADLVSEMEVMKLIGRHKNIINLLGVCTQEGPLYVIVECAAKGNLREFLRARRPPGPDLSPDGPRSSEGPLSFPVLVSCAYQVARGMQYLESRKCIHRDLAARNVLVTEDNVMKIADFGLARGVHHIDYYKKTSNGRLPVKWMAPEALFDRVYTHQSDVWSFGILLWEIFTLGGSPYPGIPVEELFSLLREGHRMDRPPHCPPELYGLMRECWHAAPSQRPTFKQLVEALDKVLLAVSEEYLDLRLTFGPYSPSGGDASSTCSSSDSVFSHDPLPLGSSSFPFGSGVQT
Chain of human FGFR4/βKlotho receptor (human) (chain, as listed by the source, chain 2 of 2): as the sequence (chain, as listed by the source, chain 2 of 2) above
Chain of human FGFR2c/βKlotho receptor (human) (P21802 22-821, chain 1 of 2): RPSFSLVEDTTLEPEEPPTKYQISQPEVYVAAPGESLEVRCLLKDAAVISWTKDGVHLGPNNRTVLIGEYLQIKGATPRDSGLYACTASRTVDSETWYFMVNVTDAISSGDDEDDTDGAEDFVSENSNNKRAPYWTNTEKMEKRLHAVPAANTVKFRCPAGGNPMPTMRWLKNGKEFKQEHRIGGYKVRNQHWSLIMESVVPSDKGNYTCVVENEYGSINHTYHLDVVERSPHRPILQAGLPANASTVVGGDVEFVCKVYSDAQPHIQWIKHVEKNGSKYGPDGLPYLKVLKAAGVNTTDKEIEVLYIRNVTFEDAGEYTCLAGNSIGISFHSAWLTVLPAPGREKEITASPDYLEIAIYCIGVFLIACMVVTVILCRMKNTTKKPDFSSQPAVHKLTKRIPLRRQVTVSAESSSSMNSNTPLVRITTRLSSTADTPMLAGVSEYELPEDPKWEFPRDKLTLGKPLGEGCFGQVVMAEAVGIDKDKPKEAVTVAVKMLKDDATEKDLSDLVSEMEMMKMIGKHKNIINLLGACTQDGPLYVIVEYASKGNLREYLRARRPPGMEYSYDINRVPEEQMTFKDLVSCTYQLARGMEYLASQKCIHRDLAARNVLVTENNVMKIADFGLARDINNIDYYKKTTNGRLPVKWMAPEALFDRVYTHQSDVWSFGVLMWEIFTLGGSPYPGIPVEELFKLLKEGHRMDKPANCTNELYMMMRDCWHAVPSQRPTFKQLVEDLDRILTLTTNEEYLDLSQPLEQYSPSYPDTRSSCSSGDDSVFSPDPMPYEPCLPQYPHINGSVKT
Chain of human FGFR2c/βKlotho receptor (human) (chain, as listed by the source, chain 2 of 2): as the sequence (chain, as listed by the source, chain 2 of 2) above

FGF19 (from UniProt O95750 25-216) (ligand)
EC50, luciferase reporter-based assay (receptor activation) [1]: 0.41 nM
EC50, luciferase reporter-based assay (receptor activation) [2]: 0.3 nM
EC50, luciferase reporter-based assay (receptor activation) [3]: 0.27 nM
EC50, luciferase reporter-based assay (receptor activation) [4]: 0.05 nM
EC50, luciferase reporter-based assay (receptor activation) [5]: 2.23 nM
